The source of these data is patent US20250122306A1 (SUTRO BIOPHARMA, published 2025).

B1: SRP2900-A11 (antibody, IgG1, V domains shown)
VH: EVQLVESGGGLVQPGGSLRLSCAASGFTITDYVIHWVRQAPGKGLEWVGYIDPSNGYTYYADSVKGRFTISADTSKNTAYLQMNSLRAEDTAVYYCARDDQSFTSPFDYWGQGTLVTVSS
VL: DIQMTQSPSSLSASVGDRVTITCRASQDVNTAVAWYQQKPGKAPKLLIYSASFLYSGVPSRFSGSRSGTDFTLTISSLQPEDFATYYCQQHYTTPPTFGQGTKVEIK
B2: SRP2900-E01 (antibody, IgG1, V domains shown)
VH: B1 VH with T30S, V33W, D100Y, Q101G, F103L, T104Q, S105V, P106F, F107I
VL: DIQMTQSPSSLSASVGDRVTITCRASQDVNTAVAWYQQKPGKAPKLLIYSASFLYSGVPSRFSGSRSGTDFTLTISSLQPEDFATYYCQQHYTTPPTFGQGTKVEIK
B3: SRP2900-D07 (antibody, IgG1, V domains shown)
VH: B1 VH with T30S, V33W, K76R, D100Y, Q101G, F103L, T104E, S105V, P106S, F107L
VL: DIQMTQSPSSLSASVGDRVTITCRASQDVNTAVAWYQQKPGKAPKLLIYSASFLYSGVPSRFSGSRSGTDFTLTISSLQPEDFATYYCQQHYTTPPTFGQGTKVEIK
B4: SRP2900-D06 (antibody, IgG1, V domains shown)
VH: B1 VH with T30S, V33W, S54Q, Y57W, D100Y, Q101G, F103L, S105I, P106N, F107L
VL: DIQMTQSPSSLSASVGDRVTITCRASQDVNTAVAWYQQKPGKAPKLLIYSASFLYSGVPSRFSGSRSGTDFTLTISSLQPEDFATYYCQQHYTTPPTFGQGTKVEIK
B5: SRP2900-D08 (antibody, IgG1, V domains shown)
VH: B1 VH with T30S, V33W, S54Y, D100Y, Q101G, F103L, T104E, S105V, P106S, F107L
VL: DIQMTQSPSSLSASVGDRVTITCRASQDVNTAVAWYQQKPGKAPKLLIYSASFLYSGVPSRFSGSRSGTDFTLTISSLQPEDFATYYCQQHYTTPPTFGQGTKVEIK
B6: SRP2900-C10 (antibody, IgG1, V domains shown)
VH: EVQLVESGGGLVQPGGSLRLSCAASGFTISDYWIHWVRQAPGKGLEWVGYIDPYNGYTYYADSVNGRFTISADTSKNTAYLQMNSLRAEDTAVYYCARDYGSYLVSLDYWGQGTLVTVSS
VL: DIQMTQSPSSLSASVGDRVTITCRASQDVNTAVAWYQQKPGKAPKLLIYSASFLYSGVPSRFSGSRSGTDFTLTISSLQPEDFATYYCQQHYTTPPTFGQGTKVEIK
B7: SRP2900-D01 (antibody, IgG1, V domains shown)
VH: B6 VH with S30H, D31E, Y54A, Y57F, N65K, Y103L, L104Q, S106F
VL: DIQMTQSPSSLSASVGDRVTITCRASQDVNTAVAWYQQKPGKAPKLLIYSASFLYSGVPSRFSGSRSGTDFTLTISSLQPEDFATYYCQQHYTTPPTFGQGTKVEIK
B8: SRP2900-D10 (antibody, IgG1, V domains shown)
VH: B6 VH with Y50F, Y54K, N65K, D73G, Y103L, L104Q, S106F, L107I
VL: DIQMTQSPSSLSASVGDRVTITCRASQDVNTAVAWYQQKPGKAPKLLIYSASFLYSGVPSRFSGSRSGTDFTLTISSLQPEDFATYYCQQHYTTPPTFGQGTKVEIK
B9: SRP2900-E03 (antibody, IgG1, V domains shown)
VH: B6 VH with Y54Q, Y57W, N65K, Y103L, L104E
VL: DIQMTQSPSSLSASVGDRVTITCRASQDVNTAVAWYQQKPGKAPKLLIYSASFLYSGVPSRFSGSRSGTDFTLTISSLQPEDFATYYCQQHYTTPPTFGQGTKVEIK
B10: SRP2900-D11 (antibody, IgG1, V domains shown)
VH: B6 VH with N65K, S85P, Y103L, L104Q, S106Q
VL: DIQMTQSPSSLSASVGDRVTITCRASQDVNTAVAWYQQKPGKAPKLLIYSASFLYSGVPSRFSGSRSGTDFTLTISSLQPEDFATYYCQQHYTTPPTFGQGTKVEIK
B11: SRP2900-D05 (antibody, IgG1, V domains shown)
VH: B6 VH with T28A, S30A, D31N, N65K, Y103L, L104E
VL: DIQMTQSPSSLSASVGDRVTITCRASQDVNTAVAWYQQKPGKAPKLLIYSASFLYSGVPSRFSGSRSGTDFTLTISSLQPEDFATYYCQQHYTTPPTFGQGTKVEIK
B12: SRP2900-D04 (antibody, IgG1, V domains shown)
VH: B6 VH with Y50F, Y60H, N65E, Y103L, L104Q, S106Q
VL: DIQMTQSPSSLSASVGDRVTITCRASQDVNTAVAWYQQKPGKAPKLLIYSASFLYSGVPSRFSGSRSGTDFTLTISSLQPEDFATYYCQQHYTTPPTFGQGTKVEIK
B13: SRP2900-D03 (antibody, IgG1, V domains shown)
VH: B6 VH with D31Q, N65K, Y103L, L104Q, S106Q
VL: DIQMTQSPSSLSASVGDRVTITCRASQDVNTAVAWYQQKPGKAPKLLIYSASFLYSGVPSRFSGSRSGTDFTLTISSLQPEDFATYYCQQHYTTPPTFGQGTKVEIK
B14: SRP2900-D02 (antibody, IgG1, V domains shown)
VH: B6 VH with N65K, Y103L, L104Q, S106F, L107I, Y109H
VL: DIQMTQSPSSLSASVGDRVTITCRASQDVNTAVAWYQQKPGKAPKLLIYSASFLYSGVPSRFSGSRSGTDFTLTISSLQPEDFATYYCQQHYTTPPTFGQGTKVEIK
B15: SRP2900-D09 (antibody, IgG1, V domains shown)
VH: B6 VH with D31G, Y54A, Y57F, N65K, Y103I, L104Q, S106F
VL: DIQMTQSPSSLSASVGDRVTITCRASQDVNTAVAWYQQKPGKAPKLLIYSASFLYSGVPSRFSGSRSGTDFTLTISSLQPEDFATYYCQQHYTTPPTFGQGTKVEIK
B16: SRP2900-A08 (antibody, IgG1, V domains shown)
VH: EVQLVESGGGLVQPGGSLRLSCAASGFTLTGYWIHWVRQAPGKGLEWVGYIDPYNGATYYADSVKGRFTISADTSKNTAYLQMNSLRAEDTAVYYCARADYYYVDEYWDYWGQGTLVTVSS
VL: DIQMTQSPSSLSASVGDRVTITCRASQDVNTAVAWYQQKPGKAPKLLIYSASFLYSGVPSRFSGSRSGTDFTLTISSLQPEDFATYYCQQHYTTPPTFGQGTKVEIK
B17: SRP2900-B10 (antibody, IgG1, V domains shown)
VH: B16 VH with L29I, T30P, G31A, A57S
VL: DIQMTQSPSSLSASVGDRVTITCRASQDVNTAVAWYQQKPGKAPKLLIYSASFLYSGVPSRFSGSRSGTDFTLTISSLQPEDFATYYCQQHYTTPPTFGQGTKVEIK
B18: SRP2900-B07 (antibody, IgG1, V domains shown)
VH: B16 VH with L29I, T30A, G31D, Y50F, A57Y, Y59G, T74N, Y102H, Y103G
VL: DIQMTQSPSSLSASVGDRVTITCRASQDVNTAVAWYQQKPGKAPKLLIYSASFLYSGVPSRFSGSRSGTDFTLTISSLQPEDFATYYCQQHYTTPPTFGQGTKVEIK
B19: SRP2900-A09 (antibody, IgG1, V domains shown)
VH: B16 VH with L29I, T30A, G31D
VL: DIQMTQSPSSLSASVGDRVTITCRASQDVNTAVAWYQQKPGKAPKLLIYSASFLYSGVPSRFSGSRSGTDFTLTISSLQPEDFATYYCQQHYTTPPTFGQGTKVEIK
B20: SRP2900-A01 (antibody, IgG1, V domains shown)
VH: B16 VH with L29I, T30S, G31S, E46K, W108F
VL: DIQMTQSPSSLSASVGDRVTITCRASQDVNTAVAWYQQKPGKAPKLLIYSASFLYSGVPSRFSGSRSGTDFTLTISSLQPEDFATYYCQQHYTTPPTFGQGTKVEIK
B21: SRP2900-B11 (antibody, IgG1, V domains shown)
VH: B16 VH with L29I, T30P, G31A, Y54S, A57Y, T74A, V93A, Y102H, Y103G
VL: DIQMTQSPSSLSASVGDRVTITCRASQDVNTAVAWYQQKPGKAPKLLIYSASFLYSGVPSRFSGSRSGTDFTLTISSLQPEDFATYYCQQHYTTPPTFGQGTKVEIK
B22: SRP2900-B06 (antibody, IgG1, V domains shown)
VH: B16 VH with L29I, T30P, G31S, Y102H, Y103G
VL: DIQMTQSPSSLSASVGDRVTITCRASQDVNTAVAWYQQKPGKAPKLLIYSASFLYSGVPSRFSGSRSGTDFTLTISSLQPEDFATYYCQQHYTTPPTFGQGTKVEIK
B23: SRP2900-B03 (antibody, IgG1, V domains shown)
VH: B16 VH with A23S, L29I, T30A, G31D
VL: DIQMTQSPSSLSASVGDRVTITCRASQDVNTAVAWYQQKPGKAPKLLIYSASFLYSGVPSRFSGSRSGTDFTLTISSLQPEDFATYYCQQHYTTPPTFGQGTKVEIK
B24: SRP2900-B02 (antibody, IgG1, V domains shown)
VH: B16 VH with L11S, L29I, T30S, G31D
VL: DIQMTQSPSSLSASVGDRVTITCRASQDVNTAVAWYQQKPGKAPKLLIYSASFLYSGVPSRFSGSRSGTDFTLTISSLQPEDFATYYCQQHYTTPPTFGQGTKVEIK
B25: SRP2900-B09 (antibody, IgG1, V domains shown)
VH: B16 VH with L29I, T30S, G31Q, Y50F, A57Y, Y59N, K76E
VL: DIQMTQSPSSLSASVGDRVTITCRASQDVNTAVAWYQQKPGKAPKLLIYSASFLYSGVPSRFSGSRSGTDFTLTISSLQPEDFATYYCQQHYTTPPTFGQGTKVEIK
B26: SRP2900-C07 (antibody, IgG1, V domains shown)
VH: B16 VH with L29I, T30S, W108F
VL: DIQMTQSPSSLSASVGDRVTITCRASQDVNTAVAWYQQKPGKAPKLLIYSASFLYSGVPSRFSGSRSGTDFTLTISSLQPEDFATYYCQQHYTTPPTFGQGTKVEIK
B27: SRP2900-C04 (antibody, IgG1, V domains shown)
VH: B16 VH with L29I, T30V, G31S
VL: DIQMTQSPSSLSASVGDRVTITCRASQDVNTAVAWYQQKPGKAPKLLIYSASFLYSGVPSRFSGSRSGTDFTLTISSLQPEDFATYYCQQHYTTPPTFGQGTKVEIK
B28: SRP2900-C02 (antibody, IgG1, V domains shown)
VH: B16 VH with L29I, T30S, G31S
VL: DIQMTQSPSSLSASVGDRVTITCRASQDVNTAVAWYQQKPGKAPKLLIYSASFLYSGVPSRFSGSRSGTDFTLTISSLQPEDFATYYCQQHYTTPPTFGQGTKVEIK
B29: SRP2900-C05 (antibody, IgG1, V domains shown)
VH: B16 VH with L29I, T30S, S75P, Y102H, Y103G
VL: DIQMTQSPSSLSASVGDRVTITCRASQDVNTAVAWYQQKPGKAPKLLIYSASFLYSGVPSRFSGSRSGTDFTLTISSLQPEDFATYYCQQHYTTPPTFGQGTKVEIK
B30: SRP2900-B05 (antibody, IgG1, V domains shown)
VH: B16 VH with L29I, T30S, Y103G, Y107F, W108L
VL: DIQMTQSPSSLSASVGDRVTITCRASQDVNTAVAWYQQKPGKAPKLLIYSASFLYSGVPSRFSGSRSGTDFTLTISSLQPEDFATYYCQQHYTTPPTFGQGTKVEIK
B31: SRP2900-B08 (antibody, IgG1, V domains shown)
VH: B16 VH with L29I, T30P, G31S, A57Y, W108F
VL: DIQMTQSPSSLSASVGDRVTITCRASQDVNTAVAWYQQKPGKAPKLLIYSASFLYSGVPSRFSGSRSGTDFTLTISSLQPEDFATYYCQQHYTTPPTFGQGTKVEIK
B32: SRP2900-E04 (antibody, IgG1, V domains shown)
VH: B16 VH with L29I, T30P, G31D, N55S, A57S, Y59F, W108L
VL: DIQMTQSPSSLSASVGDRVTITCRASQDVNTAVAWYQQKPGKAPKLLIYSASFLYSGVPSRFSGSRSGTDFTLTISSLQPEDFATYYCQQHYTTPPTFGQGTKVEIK
B33: SRP2900-B01 (antibody, IgG1, V domains shown)
VH: B16 VH with L29I, T30S, W108L
VL: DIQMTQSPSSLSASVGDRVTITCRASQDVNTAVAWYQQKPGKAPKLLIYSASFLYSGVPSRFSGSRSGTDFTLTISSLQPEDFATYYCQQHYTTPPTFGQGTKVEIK
B34: SRP2900-B04 (antibody, IgG1, V domains shown)
VH: B16 VH with L29I, T30S, G31E, Y50F, A57Y, Y59G, K65R
VL: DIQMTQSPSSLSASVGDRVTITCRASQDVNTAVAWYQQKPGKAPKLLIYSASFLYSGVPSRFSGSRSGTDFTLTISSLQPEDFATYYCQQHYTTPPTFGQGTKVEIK

Numbering of substitutions follows the chain as printed.

In this assay the target is tissue factor reagent of the Tissue Factor Activity Assay Kit (Abcam #ab108906) (UniProt P13726 33-295, limits assumed). The assay is described as follows: cell-based or functional assay.
Chain of tissue factor reagent of the Tissue Factor Activity Assay Kit (Abcam #ab108906) (P13726 33-295 limits assumed): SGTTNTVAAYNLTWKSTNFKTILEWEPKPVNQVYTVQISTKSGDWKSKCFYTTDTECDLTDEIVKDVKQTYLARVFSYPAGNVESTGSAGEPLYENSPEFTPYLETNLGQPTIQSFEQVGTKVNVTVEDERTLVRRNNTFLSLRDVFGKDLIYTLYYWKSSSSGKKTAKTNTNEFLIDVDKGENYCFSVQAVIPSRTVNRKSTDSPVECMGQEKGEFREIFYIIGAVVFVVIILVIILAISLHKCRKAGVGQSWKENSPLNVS
As for B1, the “FX conversion (% inhibition), 1000 nM antibody” value (“FX conversion (% inhibition)” below) was found to be 31.7%.

For the molecule B2, the “FX conversion (% inhibition)” value came out at 40.4%. To B3 belongs 47.4%. To B4 belongs 46.2%; to B5, 44.9%. To B6 belongs 42.1%; to B7, 32.7%. Turning to B8, the “FX conversion (% inhibition)” value turned out to be 37%. To B9 belongs 48.7%. To B10 belongs 51.4%; to B11, 33.6%.

Regarding B12, the “FX conversion (% inhibition)” value stood at 46%. For the molecule B13, the “FX conversion (% inhibition)” value was 37.4%.

Regarding B14, the “FX conversion (% inhibition)” value was 32.1%. Turning to B15, the “FX conversion (% inhibition)” value amounted to 30%. As for B16, the “FX conversion (% inhibition)” value is 41.9%. To B17 belongs 33.3%; to B18, 42.2%. For B19 the value was 46.9%.

As to B20, the “FX conversion (% inhibition)” value turned out to be 37%. As for B21, the “FX conversion (% inhibition)” value amounted to 22.4%. To B22 belongs 28.2%. To B23 belongs 44.1%. To B24 belongs 27%; to B25, 35%. Consider B26, for which the “FX conversion (% inhibition)” value was found to be 41.6%. To B27 belongs 36.7%; to B28, 29.6%. To B29 belongs 35.7%; to B30, 35.5%; to B31, 43.3%. To B32 belongs 25.9%; to B33, 38.7%; to B34, 46.3%.
